# Measurements: patent US20140088006A1, “Stem Cell Mobilization and Tissue Repair and Regeneration” (Wellstat Therapeutics Corporation, priority 2011, published 2014)
# Values joined by “and” are separate entries in the source; they are usually repeats but may differ in a detail not shown here. Equal values may be shown once.
# Experiments:
# [1] = test system: white blood cells in peripheral blood; assay: White blood cell count in peripheral blood after single subcutaneous injection; assay type: in vivo, C57Bl6 mice; conditions: s.c. 5 mg/kg; 1 hr; pooled blood
# Experimental: (§1) C57Bl6 male mice, from 8 weeks to 4 month of age, from Harlan were used. Mice received subcutaneous injections of saline, Compound X (50 μg/kg) or Compound X (250 μg/kg). After 1 and 4 hours, mice were anesthetized and blood was collected through the orbital sinus with heparinized capillary tubes. 20 μl of blood was removed from each tube for WBC counts;
# (§2) In this experiment, C57Bl6 mice received subcutaneous injections of PBS, Compound X (250 μg/kg) or AMD3100 (5 mg/kg). After 1 hr blood was collected through the orbital sinus with heparinized capillary tubes. Blood from each group was pooled, counted and mononuclear cells were isolated by density gradient separation. Cells were washed, counted and plated at 100,000 per dish (5 dishes/group) for CFU-GEMM and CFU-GM colonies. CFU-GEMM colonies were scored on day 14, while CFU-GM colonies on day 7 after plating in MC3434 (Stem cell Technology).
# [2] = test system: hematopoietic stem cells (HSC) and their hematopoietic progenitors (HPC); assay: CFU-GM / CFU-GEMM colony assay of peripheral blood mononuclear cells after single subcutaneous injection; assay type: in vivo, C57Bl6 mice; conditions: s.c. 5 mg/kg
# Experimental: as §1
# Remaining blood from each group was pooled and mononuclear cells were isolated by density gradient separation. To enumerate HSC and HPC in peripheral blood cells were washed, counted plated in semi-solid Methylcellulose MC3434 (Stem cell technology) at 100,000 per dish (5 dishes/group) and placed in CO2 incubator at 37° C. Colony-forming unit-granulocyte erythroid macrophage megakaryocyte (CFU-GEMM) and Colony-forming unit-granulocyte macrophage (CFU-GM) were detected under inverted microscope 7 and 10 days after.
# as §2
# peripheral blood cells = assay: FACS phenotype of peripheral blood cells after single subcutaneous injection; assay type: in vivo, C57Bl6 mice; conditions: for Phenotype Lin−/Sca-1+ / Phenotype Lin−/Sca-1−: 5 mg/kg, mononuclear cells
# Experimental: C57Bl6 male mice, from 8 weeks to 4 month of age, from Harlan were used. […] 20 μl of blood was removed from each tube for WBC counts;
# 200 μl of blood was used for FACS analysis of cells phenotypes: briefly 50 μl of blood was transferred to a 15 ml polypropylene tube containing 1 ml ACK lysis buffer and the tubes left at room temperature for 6 minutes. 50 μl of a 1:50 dilution of Fc block (Pharmingen 01241A) along with 2 ul of anti-CD19FITC (Pharmingen 09654A) and 2 μl of anti-Gr-1PE (Pharmingen 01215A) was added and the tubes left at room temperature for 30 minutes protected from light. The cells were washed with 3 ml FACS buffer, resuspended in 300 μl FACS buffer and kept on ice, protected from light until acquired on the FACSCalibur.
# For flow cytometry analysis the blood was stained with antibodies and a phenotype determined by FACS as described before. In addition to the whole blood FACS phenotyping, Ficolled blood was also stained to monitor the Lin−/Sca+ phenotype. The cells were washed with 3 ml FACS buffer, resuspended in 300 μl FACS buffer and kept on ice, protected from light until acquired on the FACSCalibur
# [3] = test system: human umbilical cord blood CD34+ cells; assay: Transwell migration of CD34+ cells toward SDF-1α; assay type: cell-based; conditions: 10 μg/mL; control and Compound X treated cells; 100 ng/mL SDF-1α; 4 hours
# Experimental: CD34^+ cell migration toward 100 ng/mL SDF-1α in a Corning Transwell device (24 well format, 5 μm pore size, polycarbonate membrane) was studied with and without Compound X and in the presence or absence of either anti-CXCR4 antibody or the CXCR4 antagonist AMD3100.
# The CD34^+ population of cells from human umbilical cord blood was obtained from Lonza, defrosted and expanded ex vivo with cytokine cocktail for 6 days according to standard procedures. Briefly, 10 wells of two 12 well dishes were seeded at a density of 8×10^4 cells per well in 2 mL of CellGenix serum free growth medium (SCGM). Cells were allowed to expand in a 37° C. incubator (5% CO2, 86% RH) for 6 days. During the expansion, the 10 wells of one of the two plates received treatments of Compound X to a final concentration of 5 ng/mL (10 μL from freshly prepared 1 μg/mL stock in SCGM) at 24 hours and 72 hours after initiation of the culture.
# 3 hours prior to the start of the migration assay, both control and Compound X expanded cells were pulsed with either 0, 5 ng/mL or 5 μg/mL Compound X. Migration assay was performed according to the method described (Tavor et al. 2005). Cells were centrifuged for 5 minutes at 1100 RPM and resuspended at a density of 2×10^6 cells/mL in CellGenix SCGM serum free medium containing 1% Fraction V BSA either in the presence or absence of 5 ng/mL or 5 μg/mL Compound X for 3 hours. The feeder tray (bottom) was prepared with 600 μL of serum free SCGM supplemented with 1% BSA in the presence or absence of SDF-1α. All treatments were conducted in triplicate. The wells of the migration chamber (top) received 100 μL of cells from the 2×10^6 cells/mL suspensions, preincubated with 5 ng/mL or 5 μg/mL Compound X or Control. All treatments were conducted in triplicates. The plates were placed in a 37° C. incubator (5% CO2, 86% RH) and cells were allowed to migrate for 4 hours. […]
# The cells were thawed at room temperature. […] 150 μL of the resulting cell lysates were transferred to a new 96 well plate and the fluorescence was read on a […] SpectraMax M2 fluorimeter (ex 485, em 538). […]
# [4] = test system: white blood cells in peripheral blood; assay: White blood cell count after 4 daily injections of G-CSF and Compound X; assay type: in vivo, mice; conditions: 5 μg/mouse each agent s.c. daily for 4 days, pooled blood
# Experimental: Compound X and Neupogen (rG-CSF Amgen, lot# P043601) were diluted in PBS. Mice received subcutaneous injections of PBS, Compound X (5 μg/mouse), G-CSF (5 μg/mouse) or Compound X (5 μg/mouse)+G-CSF (5 μg/mouse) for four consecutive days. On the last day of injections, 1 hour post injections, blood was collected through the orbital sinus with heparinized capillary tubes. Blood was pooled from 3 mice/group and white blood cell counts were obtained. Mononuclear cells were isolated by density gradient separation from pooled blood. Cells were washed, counted and plated at 100,000 per dish (5 dishes/group) for CFU-mix and CFU-GM colonies. Blood was also collected and processed on day 8 for colony assay. Results are shown in Tables 10, 11, and 12 and in FIG. 5.
# HSC and HPC = assay: CFU-GM / CFU-GEMM colony assay after 4 daily injections of G-CSF and Compound X; assay type: in vivo, mice; conditions: for CFU-GEMM numbers, MEAN / CFU-GM numbers, MEAN / CFU-GEMM numbers / CFU-GM numbers: 5 μg/mouse each agent s.c. daily for 4 days; for CFU-GEMM numbers / CFU-GM numbers: individual dishes; for Fold increase in number of CFU-GM / Fold increase in number of CFU-Mix (CFU-GEMM): multiple injections, 5 μg/mouse each agent
# Experimental: Compound X and Neupogen (rG-CSF Amgen, lot# P043601) were diluted in PBS. Mice received subcutaneous injections of PBS, Compound X (5 μg/mouse), G-CSF (5 μg/mouse) or Compound X (5 μg/mouse)+G-CSF (5 μg/mouse) for four consecutive days. […] Mononuclear cells were isolated by density gradient separation from pooled blood. […] Blood was also collected and processed on day 8 for colony assay. Results are shown in Tables 10, 11, and 12 and in FIG. 5.
# [5] = 1 hour, individual dishes, 5 mg/kg
molecule,measurement,setting,value
"c1cc(CN2CCCNCCNCCCNCC2)ccc1CN1CCCNCCNCCCNCC1 [AMD3100, reference compound]",White blood cell count: Cell Count,[1],1.14e+07 mL⁻¹
same,"CFU-GEMM, MEAN",[2]; 1 hour,"6.2 per 100,000 cells"
same,"CFU-GM (day 7), MEAN",[2]; 1 hour,"20.6 per 100,000 cells"
same,CFU-GEMM,[2]; [5],"5 per 100,000 cells and 4 per 100,000 cells (2×) and 11 per 100,000 cells and 7 per 100,000 cells"
same,CFU-GM (day 7),[2]; [5],"19 per 100,000 cells (3×) and 26 per 100,000 cells and 20 per 100,000 cells"
same,number of circulating committed precursors of granulocytes and macrophages—CFU-GM,[2]; 1 hr,substantial increase
same,increase of CFU-GEMM number in peripheral blood,"[2]; 1 hr, vs PBS",6.2 times
same,Phenotype Lin−/Sca-1+,peripheral blood cells; 1-hour,0.6%
same,Phenotype Lin−/Sca-1−,peripheral blood cells; 1-hour,2.8%
same,Phenotype Lin−/Sca-1+,peripheral blood cells; 30-min,0.5%
same,Phenotype Lin−/Sca-1−,peripheral blood cells; 30-min,2.1%
same,mobilization of lineage negative progenitors,"peripheral blood cells; s.c. 5 mg/kg, 30 min and 1 hr",up to 3 times
same,CD34+ cell Transwell migration toward SDF-1α,[3],strong inhibition
"G-CSF: Neupogen (rG-CSF Amgen), most common mobilizing agent for clinical uses (protein, chains of the INN, looked up) MTPLGPASSLPQSFLLKCLEQVRKIQGDGAALQEKLCATYKLCHPEELVLLGHSLGIPWAPLSSCPSQALQLAGCLSQLHSGLFLYQGLLQALEGISPELGPTLDTLQLDVADFATTIWQQMEELGMAPALQPTQGAMPAFASAFQRRAGGVLVASHLQSFLEVSYRVLRHLAQP",White Blood Cell counts: Cell Count,"[4]; Day 4, 1 hour post injection",14.6 ×10^6
same,White Blood Cell counts: Cell Count,[4]; Day 8,5.0 ×10^6
same,"CFU-GEMM numbers, MEAN",HSC and HPC; Day 4,17.6 per 100000 mononuclear cells
same,"CFU-GM numbers, MEAN",HSC and HPC; Day 4,60.6 per 100000 mononuclear cells
same,CFU-GEMM numbers,HSC and HPC; Day 4,20 per 100000 mononuclear cells and 12 per 100000 mononuclear cells (2×) and 15 per 100000 mononuclear cells and 29 per 100000 mononuclear cells
same,CFU-GM numbers,HSC and HPC; Day 4,62 per 100000 mononuclear cells and 58 per 100000 mononuclear cells and 63 per 100000 mononuclear cells and 52 per 100000 mononuclear cells and 68 per 100000 mononuclear cells
same,"CFU-GEMM numbers, MEAN",HSC and HPC; Day 8,4 per 100000 mononuclear cells
same,"CFU-GM numbers, MEAN",HSC and HPC; Day 8,15.0 per 100000 mononuclear cells
same,CFU-GEMM numbers,HSC and HPC; Day 8,5 per 100000 mononuclear cells and 4 per 100000 mononuclear cells (3×) and 3 per 100000 mononuclear cells
same,CFU-GM numbers,HSC and HPC; Day 8,12 per 100000 mononuclear cells and 15 per 100000 mononuclear cells and 11 per 100000 mononuclear cells and 21 per 100000 mononuclear cells and 16 per 100000 mononuclear cells
same,Fold increase in number of CFU-GM,HSC and HPC; Day 4,12 Fold
same,Fold increase in number of CFU-Mix (CFU-GEMM),"HSC and HPC; Day 4, 1 hr after the last injection",12.5 Fold
same,Fold increase in number of CFU-GM,HSC and HPC; Day 8,6 Fold
same,Fold increase in number of CFU-Mix (CFU-GEMM),HSC and HPC; Day 8,5 Fold
